In paper PMC3294036 (Nature structural & molecular biology, 2012):

Legend:
[1] = target: T1, calcineurin (CN A–CN B heterodimer), recombinant (UniProt Q08209;P63098)
[2] = target: rhodamine-CN (calcineurin labelled with tetramethylrhodamine acceptor) (UniProt Q08209;P63098, tetramethylrhodamine label on CN (chain and site not stated)); experiment: FRET or BRET
[3] = target: T1, calcineurin (CN A–CN B heterodimer), …; experiment: SEC-MALS

T1 sequence (P63098 16-170, one chain of several): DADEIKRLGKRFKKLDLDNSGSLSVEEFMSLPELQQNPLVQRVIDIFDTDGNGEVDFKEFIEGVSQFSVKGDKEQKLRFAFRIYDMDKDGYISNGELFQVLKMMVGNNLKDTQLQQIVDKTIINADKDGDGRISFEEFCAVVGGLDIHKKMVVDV

Row | Ki [1] [µM] | Binder | other results
1 | 47 | KRMEPAAIIITDTEIS (domain or fragment) [GST-AKAP79(333–348) I338A (PAAIIIT)] | –
2 | 3.7 | KRMEAIAIIITDTEIS (domain or fragment) [GST-AKAP79(333–348) P337A (AIAIIIT)] | –
3 | 0.36 | GST-tagged wildtype AKAP79(333–408) (PIAIIIT) (domain or fragment) KRMEPIAIIITDTEISEFDVTKSKNVPKQFLISAENEQVGVFANDNGFEDRTSEQYETLLIETASSLVKNAIQLSI | –
4 | – | ATTO425-AKAP79(333–408) I338P variant (PPAIIIT) (domain or fragment, ATTO 425 donor label (site not stated)) KRMEPPAIIITDTEISEFDVTKSKNVPKQFLISAENEQVGVFANDNGFEDRTSEQYETLLIETASSLVKNAIQLSI | koff [2]: 4.24 s⁻¹
5 | – | AKAP79(333–408) (domain or fragment) KRMEPIAIIITDTEISEFDVTKSKNVPKQFLISAENEQVGVFANDNGFEDRTSEQYETLLIETASSLVKNAIQLSI | stoichiometry N [3]: 1
6 | 39 | GST-AKAP79(333–408) T343A (PIAIIIA) (domain or fragment) KRMEPIAIIIADTEISEFDVTKSKNVPKQFLISAENEQVGVFANDNGFEDRTSEQYETLLIETASSLVKNAIQLSI | –
7 | 0.08 | GST-AKAP79(333–408) I338P (PPAIIIT) (domain or fragment) KRMEPPAIIITDTEISEFDVTKSKNVPKQFLISAENEQVGVFANDNGFEDRTSEQYETLLIETASSLVKNAIQLSI | –
8 | 12 | GST-AKAP79(333–408) I338P T343A (PPAIIIA) (domain or fragment) KRMEPPAIIIADTEISEFDVTKSKNVPKQFLISAENEQVGVFANDNGFEDRTSEQYETLLIETASSLVKNAIQLSI | –
